Experimental data as given in article PMC3829318.

What was measured:
[1] = activity after preincubation at 30 °C; conditions: glycan lost; control: rKOR1 WT
[2] = anti-KOR1 immunoblot of Sf21 culture medium; conditions: control: rKOR1 WT
[3] = Golgi processing of remaining glycopeptides, LC-ESI-MS, N. benthamiana; conditions: glycan lost; control: wild-type KOR1-Fc-GFP
[4] = (carboxymethyl)cellulose 4M hydrolysis, reducing sugar assay; conditions: control: rKOR1 WT

B1: KORRIGAN1 (KOR1): N345Q (protein)
parent chain: MYGRDPWGGPLEINTADSATDDDRSRNLNDLDRAALSRPLDETQQSWLLGPTEQKKKKYVDLGCIIVSRKIFVWTVGTLVAAALLAGFITLIVKTVPRHHPKTPPPDNYTIALHKALKFFNAQKSGKLPKHNNVSWRGNSGLQDGKGETGSFYKDLVGGYYDAGDAIKFNFPMAYAMTMLSWSVIEYSAKYEAAGELTHVKELIKWGTDYFLKTFNSTADSIDDLVSQVGSGNTDDGNTDPNDHYCWMRPEDMDYKRPVTTCNGGCSDLAAEMAAALASASIVFKDNKEYSKKLVHGAKVVYQFGRTRRGRYSAGTAESSKFYNSSMYWDEFIWGGAWMYYATGNVTYLNLITQPTMAKHAGAFWGGPYYGVFSWDNKLAGAQLLLSRLRLFLSPGYPYEEILRTFHNQTSIVMCSYLPIFNKFNRTNGGLIELNHGAPQPLQYSVNAAFLATLYSDYLDAADTPGWYCGPNFYSTSVLRDFARSQIDYILGKNPRKMSYVVGFGTKYPRHVHHRGASIPKNKVKYNCKGGWKWRDSKKPNPNTIEGAMVAGPDKRDGYRDVRMNYNYTEPTLAGNAGLVAALVALSGEEEATGKIDKNTIFSAVPPLFPTPPPPPAPWKP
[1]
  stability_or_folding, other: residual activity after 120 min: no change, at least 90 vs at least 90
[2]; glycan lost
  expression_or_secretion: no change
[3]
  localisation_or_trafficking: no change
[4]; glycan lost
  enzymatic_activity, other: specific activity: decreases, 271 ± 25 vs 374 ± 18

B2: KORRIGAN1 (KOR1): N324Q (protein)
parent chain: MYGRDPWGGPLEINTADSATDDDRSRNLNDLDRAALSRPLDETQQSWLLGPTEQKKKKYVDLGCIIVSRKIFVWTVGTLVAAALLAGFITLIVKTVPRHHPKTPPPDNYTIALHKALKFFNAQKSGKLPKHNNVSWRGNSGLQDGKGETGSFYKDLVGGYYDAGDAIKFNFPMAYAMTMLSWSVIEYSAKYEAAGELTHVKELIKWGTDYFLKTFNSTADSIDDLVSQVGSGNTDDGNTDPNDHYCWMRPEDMDYKRPVTTCNGGCSDLAAEMAAALASASIVFKDNKEYSKKLVHGAKVVYQFGRTRRGRYSAGTAESSKFYNSSMYWDEFIWGGAWMYYATGNVTYLNLITQPTMAKHAGAFWGGPYYGVFSWDNKLAGAQLLLSRLRLFLSPGYPYEEILRTFHNQTSIVMCSYLPIFNKFNRTNGGLIELNHGAPQPLQYSVNAAFLATLYSDYLDAADTPGWYCGPNFYSTSVLRDFARSQIDYILGKNPRKMSYVVGFGTKYPRHVHHRGASIPKNKVKYNCKGGWKWRDSKKPNPNTIEGAMVAGPDKRDGYRDVRMNYNYTEPTLAGNAGLVAALVALSGEEEATGKIDKNTIFSAVPPLFPTPPPPPAPWKP
[1]
  stability_or_folding, other: residual activity after 120 min: no change, at least 90 vs at least 90
[2]; glycan lost
  expression_or_secretion: no change
[3]
  localisation_or_trafficking: no change
[4]; glycan lost
  enzymatic_activity, other: specific activity: decreases, 307 ± 8 vs 374 ± 18

B3: KORRIGAN1 (KOR1): N567Q (protein)
parent chain: MYGRDPWGGPLEINTADSATDDDRSRNLNDLDRAALSRPLDETQQSWLLGPTEQKKKKYVDLGCIIVSRKIFVWTVGTLVAAALLAGFITLIVKTVPRHHPKTPPPDNYTIALHKALKFFNAQKSGKLPKHNNVSWRGNSGLQDGKGETGSFYKDLVGGYYDAGDAIKFNFPMAYAMTMLSWSVIEYSAKYEAAGELTHVKELIKWGTDYFLKTFNSTADSIDDLVSQVGSGNTDDGNTDPNDHYCWMRPEDMDYKRPVTTCNGGCSDLAAEMAAALASASIVFKDNKEYSKKLVHGAKVVYQFGRTRRGRYSAGTAESSKFYNSSMYWDEFIWGGAWMYYATGNVTYLNLITQPTMAKHAGAFWGGPYYGVFSWDNKLAGAQLLLSRLRLFLSPGYPYEEILRTFHNQTSIVMCSYLPIFNKFNRTNGGLIELNHGAPQPLQYSVNAAFLATLYSDYLDAADTPGWYCGPNFYSTSVLRDFARSQIDYILGKNPRKMSYVVGFGTKYPRHVHHRGASIPKNKVKYNCKGGWKWRDSKKPNPNTIEGAMVAGPDKRDGYRDVRMNYNYTEPTLAGNAGLVAALVALSGEEEATGKIDKNTIFSAVPPLFPTPPPPPAPWKP
[1]
  stability_or_folding, other: residual activity after 120 min: no change, at least 90 vs at least 90
[2]; glycan lost
  expression_or_secretion: decreases
[3]
  localisation_or_trafficking: no change

B4: KORRIGAN1 (KOR1): N408Q (protein)
parent chain: MYGRDPWGGPLEINTADSATDDDRSRNLNDLDRAALSRPLDETQQSWLLGPTEQKKKKYVDLGCIIVSRKIFVWTVGTLVAAALLAGFITLIVKTVPRHHPKTPPPDNYTIALHKALKFFNAQKSGKLPKHNNVSWRGNSGLQDGKGETGSFYKDLVGGYYDAGDAIKFNFPMAYAMTMLSWSVIEYSAKYEAAGELTHVKELIKWGTDYFLKTFNSTADSIDDLVSQVGSGNTDDGNTDPNDHYCWMRPEDMDYKRPVTTCNGGCSDLAAEMAAALASASIVFKDNKEYSKKLVHGAKVVYQFGRTRRGRYSAGTAESSKFYNSSMYWDEFIWGGAWMYYATGNVTYLNLITQPTMAKHAGAFWGGPYYGVFSWDNKLAGAQLLLSRLRLFLSPGYPYEEILRTFHNQTSIVMCSYLPIFNKFNRTNGGLIELNHGAPQPLQYSVNAAFLATLYSDYLDAADTPGWYCGPNFYSTSVLRDFARSQIDYILGKNPRKMSYVVGFGTKYPRHVHHRGASIPKNKVKYNCKGGWKWRDSKKPNPNTIEGAMVAGPDKRDGYRDVRMNYNYTEPTLAGNAGLVAALVALSGEEEATGKIDKNTIFSAVPPLFPTPPPPPAPWKP
[1]
  stability_or_folding, other: residual activity after 120 min: no change, at least 90 vs at least 90
[2]; glycan lost
  expression_or_secretion: no change
[3]
  localisation_or_trafficking: no change
[4]; glycan lost
  enzymatic_activity, other: specific activity: no change, 379 ± 18 vs 374 ± 18

B5: KORRIGAN1 (KOR1): N425Q (protein)
parent chain: MYGRDPWGGPLEINTADSATDDDRSRNLNDLDRAALSRPLDETQQSWLLGPTEQKKKKYVDLGCIIVSRKIFVWTVGTLVAAALLAGFITLIVKTVPRHHPKTPPPDNYTIALHKALKFFNAQKSGKLPKHNNVSWRGNSGLQDGKGETGSFYKDLVGGYYDAGDAIKFNFPMAYAMTMLSWSVIEYSAKYEAAGELTHVKELIKWGTDYFLKTFNSTADSIDDLVSQVGSGNTDDGNTDPNDHYCWMRPEDMDYKRPVTTCNGGCSDLAAEMAAALASASIVFKDNKEYSKKLVHGAKVVYQFGRTRRGRYSAGTAESSKFYNSSMYWDEFIWGGAWMYYATGNVTYLNLITQPTMAKHAGAFWGGPYYGVFSWDNKLAGAQLLLSRLRLFLSPGYPYEEILRTFHNQTSIVMCSYLPIFNKFNRTNGGLIELNHGAPQPLQYSVNAAFLATLYSDYLDAADTPGWYCGPNFYSTSVLRDFARSQIDYILGKNPRKMSYVVGFGTKYPRHVHHRGASIPKNKVKYNCKGGWKWRDSKKPNPNTIEGAMVAGPDKRDGYRDVRMNYNYTEPTLAGNAGLVAALVALSGEEEATGKIDKNTIFSAVPPLFPTPPPPPAPWKP
[1]
  stability_or_folding, other: residual activity after 120 min: decreases, 69 vs at least 90
[2]; glycan lost
  expression_or_secretion: no change
[3]
  localisation_or_trafficking: no change
[4]; glycan lost
  enzymatic_activity, other: specific activity: no change, 394 ± 34 vs 374 ± 18

B6: KORRIGAN1 (KOR1): N216Q/N324Q/N345Q (protein)
parent chain: MYGRDPWGGPLEINTADSATDDDRSRNLNDLDRAALSRPLDETQQSWLLGPTEQKKKKYVDLGCIIVSRKIFVWTVGTLVAAALLAGFITLIVKTVPRHHPKTPPPDNYTIALHKALKFFNAQKSGKLPKHNNVSWRGNSGLQDGKGETGSFYKDLVGGYYDAGDAIKFNFPMAYAMTMLSWSVIEYSAKYEAAGELTHVKELIKWGTDYFLKTFNSTADSIDDLVSQVGSGNTDDGNTDPNDHYCWMRPEDMDYKRPVTTCNGGCSDLAAEMAAALASASIVFKDNKEYSKKLVHGAKVVYQFGRTRRGRYSAGTAESSKFYNSSMYWDEFIWGGAWMYYATGNVTYLNLITQPTMAKHAGAFWGGPYYGVFSWDNKLAGAQLLLSRLRLFLSPGYPYEEILRTFHNQTSIVMCSYLPIFNKFNRTNGGLIELNHGAPQPLQYSVNAAFLATLYSDYLDAADTPGWYCGPNFYSTSVLRDFARSQIDYILGKNPRKMSYVVGFGTKYPRHVHHRGASIPKNKVKYNCKGGWKWRDSKKPNPNTIEGAMVAGPDKRDGYRDVRMNYNYTEPTLAGNAGLVAALVALSGEEEATGKIDKNTIFSAVPPLFPTPPPPPAPWKP
[3]
  localisation_or_trafficking: no change

B7: KORRIGAN1 (KOR1): N216Q (protein)
parent chain: MYGRDPWGGPLEINTADSATDDDRSRNLNDLDRAALSRPLDETQQSWLLGPTEQKKKKYVDLGCIIVSRKIFVWTVGTLVAAALLAGFITLIVKTVPRHHPKTPPPDNYTIALHKALKFFNAQKSGKLPKHNNVSWRGNSGLQDGKGETGSFYKDLVGGYYDAGDAIKFNFPMAYAMTMLSWSVIEYSAKYEAAGELTHVKELIKWGTDYFLKTFNSTADSIDDLVSQVGSGNTDDGNTDPNDHYCWMRPEDMDYKRPVTTCNGGCSDLAAEMAAALASASIVFKDNKEYSKKLVHGAKVVYQFGRTRRGRYSAGTAESSKFYNSSMYWDEFIWGGAWMYYATGNVTYLNLITQPTMAKHAGAFWGGPYYGVFSWDNKLAGAQLLLSRLRLFLSPGYPYEEILRTFHNQTSIVMCSYLPIFNKFNRTNGGLIELNHGAPQPLQYSVNAAFLATLYSDYLDAADTPGWYCGPNFYSTSVLRDFARSQIDYILGKNPRKMSYVVGFGTKYPRHVHHRGASIPKNKVKYNCKGGWKWRDSKKPNPNTIEGAMVAGPDKRDGYRDVRMNYNYTEPTLAGNAGLVAALVALSGEEEATGKIDKNTIFSAVPPLFPTPPPPPAPWKP
[1]
  stability_or_folding, other: residual activity after 120 min: no change, at least 90 vs at least 90
[2]; glycan lost
  expression_or_secretion: no change
[3]
  localisation_or_trafficking: no change
[4]; glycan lost
  enzymatic_activity, other: specific activity: decreases, 244 ± 25 vs 374 ± 18

B8: KORRIGAN1 (KOR1): kifunensine (rKOR1 KIF) (protein)
parent chain: MYGRDPWGGPLEINTADSATDDDRSRNLNDLDRAALSRPLDETQQSWLLGPTEQKKKKYVDLGCIIVSRKIFVWTVGTLVAAALLAGFITLIVKTVPRHHPKTPPPDNYTIALHKALKFFNAQKSGKLPKHNNVSWRGNSGLQDGKGETGSFYKDLVGGYYDAGDAIKFNFPMAYAMTMLSWSVIEYSAKYEAAGELTHVKELIKWGTDYFLKTFNSTADSIDDLVSQVGSGNTDDGNTDPNDHYCWMRPEDMDYKRPVTTCNGGCSDLAAEMAAALASASIVFKDNKEYSKKLVHGAKVVYQFGRTRRGRYSAGTAESSKFYNSSMYWDEFIWGGAWMYYATGNVTYLNLITQPTMAKHAGAFWGGPYYGVFSWDNKLAGAQLLLSRLRLFLSPGYPYEEILRTFHNQTSIVMCSYLPIFNKFNRTNGGLIELNHGAPQPLQYSVNAAFLATLYSDYLDAADTPGWYCGPNFYSTSVLRDFARSQIDYILGKNPRKMSYVVGFGTKYPRHVHHRGASIPKNKVKYNCKGGWKWRDSKKPNPNTIEGAMVAGPDKRDGYRDVRMNYNYTEPTLAGNAGLVAALVALSGEEEATGKIDKNTIFSAVPPLFPTPPPPPAPWKP
[2]; glycan changed form
  expression_or_secretion: no change
[4]; glycan changed form
  enzymatic_activity, other: specific activity: no change, 402 ± 40 vs 374 ± 18
